The text below walks through data of doi:10.1101/2020.01.16.909549.

This data set addresses T1, Rad4 Δβ-hairpin3 crosslinking construct (<SC41B>);Rad23 (crystal) (Saccharomyces cerevisiae?;Saccharomyces …, UniProt P14736;P32628 101-632;230-398, V131C;C132S;del599-605|).
T1 sequence 1: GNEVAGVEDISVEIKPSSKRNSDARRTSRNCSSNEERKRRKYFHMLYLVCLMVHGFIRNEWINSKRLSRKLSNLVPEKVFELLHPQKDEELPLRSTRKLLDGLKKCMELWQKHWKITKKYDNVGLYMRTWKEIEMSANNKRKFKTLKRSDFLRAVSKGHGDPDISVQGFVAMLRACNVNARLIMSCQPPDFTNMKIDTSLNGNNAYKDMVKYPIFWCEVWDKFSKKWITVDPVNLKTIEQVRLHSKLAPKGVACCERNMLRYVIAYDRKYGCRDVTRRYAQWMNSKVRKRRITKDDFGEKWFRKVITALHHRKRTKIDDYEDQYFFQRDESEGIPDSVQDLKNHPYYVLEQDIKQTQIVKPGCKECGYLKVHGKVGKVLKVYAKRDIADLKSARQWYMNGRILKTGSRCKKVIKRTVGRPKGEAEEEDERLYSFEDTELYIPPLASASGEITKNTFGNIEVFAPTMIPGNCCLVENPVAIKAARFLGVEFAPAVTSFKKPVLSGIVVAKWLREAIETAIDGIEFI
T1 sequence 2: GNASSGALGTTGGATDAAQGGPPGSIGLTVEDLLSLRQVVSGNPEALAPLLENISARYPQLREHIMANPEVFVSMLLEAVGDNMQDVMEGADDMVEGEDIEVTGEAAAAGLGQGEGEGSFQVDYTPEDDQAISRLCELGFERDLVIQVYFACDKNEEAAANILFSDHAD
The data set is described as follows: X-ray crystallography.

B1: CGC/GCG 23-bp crystal DNA (CH9c) (dsDNA)
DNA 1: TTGACTCGACATCGCGCGCTACA
DNA 2: ATGTAGCGCGCGATGTCGAGTCA
modifications: disulfide (cystamine)-tethered dG* at top strand position 8, from 2-F-dI
B1: the binding result is listed as “binds”.
